Laboratory results as given in the Human Domainome abundance scans (Beltran et al. 2025).

B1: Ankyrin-1, residues 1405 to 1484; numbered along this chain, P16157 (parent)
chain: MKMAVISEHLGLSWAELARELQFSVEDINRIRVENPNSLLEQSVALLNLWVIREGQNANMENLYTALQSIDRGEIVNMLE

Variants of: B1
Assay: abundance fitness (aPCA) (normalised: wild type 0, dead -1); higher = more abundant; growth selection in yeast, the domain comes from the species named
Conditions: Homo sapiens

Abundance fitness of substitutions, site by site:
W50: E -0.834 | Q -0.708 | R -0.863 | S -0.734 | F -0.713 | D -0.653 | K -0.655 | V -0.923 | T -0.823 | G -1.07 | A -0.902 | L -0.368 | Y 0.015 | C -0.71 | P -1
N59: L -0.2 | G -0.151 | I -0.314 | A -0.047 | K -0.02 | D 0.245 | Q -0.031 | V -0.078 | T -0.338 | S 0.059 | C -0.222 | R 0.034 | P -0.253 | W -0.371 | F -0.388 | H -0.376
N57: E 0.163 | H -0.255 | T -0.154 | M -0.075 | Y 0.093 | P -0.061 | W -0.175 | C -0.168 | D -0.072 | F -0.437 | A -0.212 | K -0.117 | I -0.636 | L -0.108 | R -0.191 | G 0.017 | V -0.068
N48: W -0.834 | F -0.896 | Q -0.205 | G -0.236 | L -0.835 | P -1.07 | T -0.544 | E -0.458 | A -0.415 | H -0.042 | R -0.006 | V -0.474 | M -0.575 | K 0.098 | C -0.495 | D 0.154 | S -0.277 | I -1.04
E54: S -0.136 | C -0.198 | K -0.29 | R -0.456 | T -0.455 | I -0.931 | Q -0.118 | D -0.3 | A -0.496 | F -0.606 | W -0.62 | G -0.115 | M -0.294 | Y -0.357 | V -0.412 | H -0.294 | L -0.567 | N -0.043 | P -0.977
A58: K 0.046 | T -0.195 | N 0.092 | Q -0.095 | G 0.038 | E -0.192 | H -0.241 | P 0.195 | V 0.124 | R -0.049 | L 0.157 | F -0.253 | M 0.122 | I -0.008 | C 0.031 | W -0.062 | Y -0.065 | S -0.078
M60: K -0.534 | G -0.813 | H 0.243 | F 0.671 | C -0.564 | T -0.286 | V 0.117 | S -0.28 | N -0.723 | E -0.42 | R -0.704 | P -0.207 | A -0.343 | W 0.055
T65: V -0.153 | N -0.004 | A -0.029 | F -0.095 | D 0.009 | Y -0.132 | Q 0.016 | P 0.095 | W -0.291 | S 0.001 | L -0.072 | R -0.04 | I -0.209 | M -0.15 | C -0.002 | E 0.015 | K -0.055 | H -0.05 | G -0.045
I52: G -0.351
L47: H -0.503 | W -0.673 | V -0.308 | C -0.061 | A -0.905 | G -0.521 | T -0.628 | Y -0.997 | P -0.654 | N -0.914 | M 0.061 | I -0.256 | E -0.874 | D -0.743
L63: W -0.693 | I 0.037 | F -0.632 | P -0.805 | T -0.493 | V -0.136 | N -0.806 | M -0.027 | A -0.79 | E -0.646 | S -0.637 | C -0.748 | D -0.763 | R -0.95 | Q -0.075
L46: P -0.891 | I -0.446 | F -0.204 | T -0.143 | N -0.878 | K -0.741 | D -1.1 | S -0.832 | Y -0.614 | M -0.201 | Q -1.13 | E -0.987 | W -0.638 | G -0.953 | C -0.138
R53: A -0.555 | F -0.927 | S -0.591 | N -0.31 | C -0.797 | Y -0.842 | V -0.847 | T -0.682 | K -0.17 | G -0.507 | E -0.512 | H -0.758 | D -0.613 | Q -0.483 | P -0.983
L49: C -0.097 | V -0.314 | M 0.061 | F -0.19 | T -0.216 | D -0.196 | I -0.058 | G -0.11 | N -0.256 | W -0.359 | R -0.088 | H -0.239 | E -0.055 | A -0.138 | Q 0.014 | K 0.047 | Y -0.037 | P -0.81
G55: F -0.765 | P -0.69 | Q -0.339 | D -0.1 | R -0.394 | M -0.661 | T -0.133 | K -0.666 | C -0.389 | W -1.01 | E -0.266 | L -0.871 | S -0.277 | I -0.687
N62: F 0.034 | I 0.089 | Y 0.002 | T 0.211 | R 0.032 | P -0.265 | E -0.197 | A -0.045 | D 0.109 | S -0.081 | V 0.071 | L -0.037 | C -0.126
Q56: W -0.232 | Y -0.147 | T 0.158 | H -0.213 | E 0.055 | I 0.097 | R -0.02 | C -0.167 | G -0.035 | L -0.19 | A -0.113 | M -0.061 | P -0.052 | S -0.097 | V 0.07 | N -0.191 | D -0.139
E61: R -0.316 | V -0.523 | Q 0.459 | S -0.284 | A 0.165 | G -0.414 | D -0.1
A45: G -0.248 | F -0.65 | D -0.306 | M -0.173 | V -0.513 | Q -0.139 | N -0.226 | I -0.45 | W -0.921 | Y -0.565 | E -0.023 | R -0.147 | T -0.085 | C -0.259 | S -0.03 | P -0.77 | L -0.627
Y64: W -0.531 | Q -0.594 | E -0.353 | T -0.049 | I -0.302 | D -0.797 | A -0.494 | P -0.725 | H -0.312 | L -0.172 | G -0.274 | V -0.225 | N 0.087 | M -0.185 | R -0.407 | C -0.24 | K -0.473
V51: S 0.128 | Y -0.023 | W 0.085 | R 0.065 | N -0.159 | G -0.001 | A -0.072 | I 0.017 | L 0.053 | M 0.026 | Q 0.176 | K 0.156 | F 0.071 | T 0.068 | H 0.026
S43: Y -0.857
V44: T 0.161 | R 0.181 | E -0.058 | P -0.911 | I -0.217 | L 0.014 | Q 0.18 | W -0.021 | C 0.05 | N 0.296 | A 0.148 | K 0.327 | S 0.154 | H 0.275 | Y 0.03 | G 0.046 | M 0.142 | F 0.182 | D 0.112
